Measurements: patent US20260297188 (published 2026)

T1: human NKp46 ECD (human)
T1 chain: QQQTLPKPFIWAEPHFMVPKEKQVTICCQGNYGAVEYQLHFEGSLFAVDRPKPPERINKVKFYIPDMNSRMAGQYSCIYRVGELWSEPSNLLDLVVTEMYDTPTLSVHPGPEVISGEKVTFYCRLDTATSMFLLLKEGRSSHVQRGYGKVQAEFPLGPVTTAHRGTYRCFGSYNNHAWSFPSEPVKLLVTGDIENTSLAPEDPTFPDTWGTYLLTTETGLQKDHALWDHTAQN


Target: T1, human NKp46 ECD
Test: SPR, 25C

| Binder | Kd |
| --- | --- |
| ch3-7 (antibody, V domains shown) VH: QSLEESGGRLVTPGTPLTLTCTVSGFSPSSYYMSWVRQAPGKGLEYIGIIFSGGSTWYASWAKGRVTISRTSTTVDLKMTSLTTEDTATYFCARGDAVGSGYWGLWGPGTLVTVSS VL: AFELTQTPSSVEAAVGGTVTINCQASQDIYIYLAWYQQKPGQPPKLLIYSASTLASGVSSRFTGSRSGTQFTLTISDLEPADAATYYCQSYDGTSNTGFGGGTEVVVR | 0.0199 nM |
| ch6-1 (antibody, V domains shown) VH: QSLEESGGGLVQPEGSLTLTCTASGFSFSSSAWICWVRQAPGKGLEWIGCINTVSVNAYYASWAKGRFTISKTSSTTVTLQVTSLTAADTATHFCARNPYNSLRLWGPGTLVTVSS VL: DVVMTQTPASVSEPVGGTITINCQASENIYSSLAWYQQKPGQPPKLLMYDVSDLASGVPSRFSGSGSGTEFALTISDVQPDDAATYFCLGGYPSNNYRMAFGGGTEVVVK | 0.0209 nM |
| IP-46-3 (antibody, V domains shown) VH: EVQLQQSGPELVKPGASVKISCKTSGYTFTEYTMHWVKQSHGKSLEWIGGISPNIGGTSYNQKFKGKATLTVDKSSSTAYMELRSLTSEDSAVYYCARRGGSFDYWGQGTTLTVSS VL: DIVMTQSPATLSVTPGDRVSLSCRASQSISDYLHWYQQKSHESPRLLIKYASQSISGIPSRFSGSGSGSDFTLSINSVEPEDVGVYYCQNGHSFPLTFGAGTKLELK | 0.361 nM |
| ch5-13 (antibody, V domains shown) VH: QSVEESGGRLVTPGTPLTLTCTVSGFSLSSYHMSWVRQAPGKGLEWIGYILANTDSYYANWAKGRFTISKTSTTVDLKITSPTTEDTATYFCARYDNHDAAYSTLWGPGTLVTVSS VL: AYDMTQTPASVEVAVGGTVTIKCQASQSISTALAWYQQKPGQPPKLLIYKASTLASGVSSRFKGSGSGTQFTLTISGVEPADAATYYCQQGYSRSNVDNVFGGGTEVVVK | 0.194 nM |
